This note sets out measurements from patent publication US20240016892A1 (SHATTUCK LABS, published 2024).

Experiment [1] deals with T1, recombinant human HVEM-Fc (human, UniProt Q92956 39-202, limits assumed).
T1 construct: also called human recombinant HVEM (MSD plates); not shown: Fc of the bought fusion (Acro Biosystems); not described
T1 sequence (looked up): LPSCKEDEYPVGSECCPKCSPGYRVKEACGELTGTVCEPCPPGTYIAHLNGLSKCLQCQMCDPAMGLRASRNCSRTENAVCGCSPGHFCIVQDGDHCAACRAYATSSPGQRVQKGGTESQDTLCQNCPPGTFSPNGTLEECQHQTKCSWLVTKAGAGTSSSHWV
The experiment in a line: MSD sandwich 'Dual - Potency #2': capture HVEM-Fc, TIGIT-Fc-LIGHT titrated, detection PVR-Biotin. As for the experimental part:
For the TIGIT-Fc-LIGHT chimeric protein; MSD Multi-Array plates (MSD) were pre-coated overnight with recombinant human LTβR-Fc or HVEM-Fc (Acro Biosystems) at 4° C. The plates were blocked with Diluent 100 (MSD) for at least one hour at room temperature on a shaker. After washing, analysis samples were added and then serially diluted 3-fold and loaded in duplicate wells to generate 8-10 test concentrations. The bound the TIGIT-Fc-LIGHT chimeric protein was detected with recombinant biotinylated human PVR (Acro Biosystems). Streptavidin conjugated to ruthenium (MSD), was added to bind the biotin labeled detector. MSD Gold Reading buffer (MSD) was added to the plate, and upon application of an electrical charge, an electrochemiluminescent signal was produced and detected with the MSD MESO QuickPlex SQ 120MM, Model 1300, to generate relative light units (RLU). Analogous assays were performed using mTIGIT-Fc-LIGHT and murine recombinant PVR, HVEM, and […] (Acro Biosystems).
The binding of the TIGIT-Fc-LIGHT chimeric protein to its receptors was characterized by Meso Scale Discovery (MSD) ELISA assays. […] Binding of the chimeric protein to LTβR-Fc was detected using an PVR-Biotin and using an electrochemiluminescence (ECL) readout. […] Binding of the chimeric protein to HVEM-Fc was detected using an PVR-Biotin and using an electrochemiluminescence (ECL) readout. […]

Experiment [2] addresses T2, anti-human TIGIT antibody (MSD capture).
T2 construct: also called anti-TIGIT antibody
The experiment in a line: MSD sandwich 'Dual - Antibody': capture anti-TIGIT, TIGIT-Fc-LIGHT titrated, detection anti-LIGHT.

B1: human TIGIT-Fc-LIGHT chimeric protein (Fc fusion)
chain: MMTGTIETTGNISAEKGGSIILQCHLSSTTAQVTQVNWEQQDQLLAICNADLGWHISPSFKDRVAPGPGLGLTLQSLTVNDTGEYFCIYHTYPDGTYTGRIFLEVLESSVAEHGARFQIPSKYGPPCPPCPAPEFLGGPSVFLFPPKPKDQLMISRTPEVTCVVVDVSQEDPEVQFNWYVDGVEVHNAKTKPREEQFNSTYRVVSVLTVLHQDWLSGKEYKCKVSSKGLPSSIEKTISNATGQPREPQVYTLPPSQEEMTKNQVSLTCLVKGFYPSDIAVEWESNGQPENNYKTTPPVLDSDGSFFLYSRLTVDKSRWQEGNVFSCSVLHEALHNHYTQKSLSLSLGKIEGRMDLQLHWRLGEMVTRLPDGPAGSWEQLIQERRSHEVNPAAHLTGANSSLTGSGGPLLWETQLGLAFLRGLSYHDGALVVTKAGYYYIYSKVQLGGVGCPLGLASTITHGLYKRTPRYPEELELLVSQQSPCGRATSSSRVWWDSSFLGGVVHLEAGEKVVVRVLDERLVRLRDGTRSYFGAFMV
notes: Said to exist as a hexamer (dimer of trimers); Glycosylated; also called hTIGIT-Fc-LIGHT; TIGIT-Fc(IgG4)-LIGHT
With B1, the EC50 in experiment [1] was found to be 86 nM; in experiment [2] it was 1.15 nM.

What is called EC50 is the midpoint of the concentration-response curve.
